For the assay, the target named is human angiotensin-converting-enzyme-2 (ACE2) receptor, recombinant (human, UniProt Q9BYF1 18-740). Briefly: SPR.
human angiotensin-converting-enzyme-2 (ACE2) receptor, recombinant, sequence (Q9BYF1 18-740): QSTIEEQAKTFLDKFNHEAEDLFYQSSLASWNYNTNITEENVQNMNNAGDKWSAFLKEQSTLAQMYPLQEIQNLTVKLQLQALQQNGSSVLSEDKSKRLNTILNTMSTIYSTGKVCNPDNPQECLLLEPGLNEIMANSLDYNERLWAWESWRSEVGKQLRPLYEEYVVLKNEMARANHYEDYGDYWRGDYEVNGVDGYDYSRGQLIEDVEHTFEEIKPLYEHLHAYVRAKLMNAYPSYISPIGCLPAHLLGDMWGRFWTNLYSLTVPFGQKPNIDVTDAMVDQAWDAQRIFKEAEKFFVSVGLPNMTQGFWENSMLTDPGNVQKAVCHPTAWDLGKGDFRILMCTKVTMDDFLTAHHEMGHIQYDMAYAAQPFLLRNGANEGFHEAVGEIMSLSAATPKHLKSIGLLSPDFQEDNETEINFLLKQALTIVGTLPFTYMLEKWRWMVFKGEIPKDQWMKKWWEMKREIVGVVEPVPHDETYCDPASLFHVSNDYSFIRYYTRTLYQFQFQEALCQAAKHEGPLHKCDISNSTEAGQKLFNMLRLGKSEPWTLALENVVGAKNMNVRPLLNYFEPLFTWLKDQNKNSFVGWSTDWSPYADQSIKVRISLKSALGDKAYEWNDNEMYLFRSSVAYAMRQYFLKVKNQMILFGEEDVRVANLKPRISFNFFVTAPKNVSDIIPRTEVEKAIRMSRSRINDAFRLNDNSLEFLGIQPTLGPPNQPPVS

B1: pineapple-derived jacalin-related lectin AcmJRL (natural protein)
chain: SGLVKLGLWGGNEGTLQDIDGHPTRLTKIVIRSAHAIDALQFDYVEDGKTFAAGQWGGNGGKSDTIEFQPGEYLIAIKGTTGALGAVTNLVRSLTFISNMRTYGPFGLEHGTPFSVPVASGRIVAFYGRFGSLVDAFGIYLMPY
modifications: glycation (+162 Da, +324 Da) of lysines in part of the protein (ca. 10% bis-, 36% mono-modified, 54% unmodified); sites not determined
On to B1, for which the Kd came out at 36.4 µM.
